Source: the nanobody polyreactivity screen of Harvey et al. (2022)

Test: yeast display, Sf9 membrane polyspecificity reagent, FACS + sequencing; frameworks hold sequencing errors
Summary of the method: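 Synthetic nanobody libraries on Saccharomyces cerevisiae BJ5465 were galactose-induced for 36–48 hours, stained 1 hour at 4 °C with 10% biotinylated, detergent-solubilized Sf9 membrane reagent and enriched on streptavidin microbeads. FACS then separated cells into low and high (top ~1%) gates by anti-HA (expression) and streptavidin (reagent binding) fluorescence. Genes were colony-PCR amplified, MiSeq 2 × 250 sequenced and CDR-length filtered. A clone's polyreactivity label is that of its gate of origin.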

| Sequence | polyreactivity (PSR sort gate) |
| --- | --- |
| QVQLVESGGGLVQAGGSLRLSCAASGSTFWWKTMGWYRLAPGKERELVADIRTSGGGTYYADSVKGRFTISRDNAKNNVYLQMYSLKPEDTAVYYCNADPKWEMGSWGQGTQVTVSS | low polyreactivity |
| QVQLVESGGGLVQAGGSLRLSCAASGIIFHKYAMGWYRQAPGKERELVAVITWRGGSTYYADSVKGRFTISRDHAKNTVYLQMNSLKPEDTAVYYCAARSQYRDRTGQYGYWGQGTQVTVSS | high polyreactivity |
| QVQLVESGGGLVQAGGSLRLSCAASGSTFIGYDMGWYRQAPGKERELVAAISYSDGTYYADSVKGRFTISRDNAKNTVYLQMNSLKPEDTAVYYCAAVSLYYRYDYWGQGTQVTVSS | low polyreactivity |
| QVQLVESGGGLVQAGGSLRLSCAASGFIFWSYAMGWYRQAPGKERELVAAITRRGGSTYYADSVKGRFTISRDNAKNTVYLQMNSLKPEDTAVYYCNARRTYNGPVYPYYSGVNYWGQGTQVTVSS | high polyreactivity |
| QVQLVESGGGLGQAGGSLRLSCAASGLIFGLYAMGWYRQAPGKERELVAAISYRTDSTYADSVKGRFTISRDNAKNTVYLQMNSLKPEDTAVYYCAADLRVSVRYYYWGQGTQVTVSS | low polyreactivity |
| QDQLVESGGGLVQAGGSLRLSCAASGLTFAIYAMGCYRPAPGKERELVAGITWNTGRTYYADSVKGRFTISRDNAKNTVYLQMNSLNPEDTAVYYFAGRFVSRSVRGEATKYDYWGQGTQVTVSS | high polyreactivity |
| QVQLVESGGGLVQAGGSLRLSCAASGFTFGRYAMGWYRQAPGKERELVAAITSRGGSTYYADSVKGRFTISRDNAKNTVYLQMNSLKPEDTAVYYCNRDLVDSYGYWGQGTQVTVSS | high polyreactivity |
| QVQLVESGGGLVQAGGSLRLSCAASGSTFYSYTMGWYRQAPGKERELVAAISRSAGSTYYADSVKGRFTISRDHAKNTVYLQMNSLKPEVTAVYYCAATLGRTYYSRWYGMDYWGQGTQVTVSS | high polyreactivity |
| QVQLVESGGGLVQAGDSLRLSCAASGFIFYYYTMGWYRQAPGKEREFVAAITYSGGRTYYADSVKGRFTISRDNAKNTVYLQMNSLKPQDTAVYYCADVPRYGPSSRMDYWGQGTQVTVSS | high polyreactivity |
| QVQLVESGGGLVQAGGSLRLRCAASGFTFPSYPMGWYRQAPGKEREVVAAISQRGGSTYYADSEKGRFTISRDNAKHTVYLQLNSLKPEDTAVYYCAALAPRTGRPTYGYWGQGTQVTVSS | low polyreactivity |
| QVHLVESVGGLVQAGGSLRLSCAASGRIFYRNAMGCYRQAPGKERELVAAINTGGDGTYYADSVKGRFTISRDNAKNTVYLQMNSLKPEDTAVYYCAADRSSFYWSHGTVYGYDYWGQGTQVTVSS | low polyreactivity |
| QVQLVESGGGLVQAGGSLRLTCAASGFIFYYYTIGWYRQAPGKERELVAAIRTDGNTYYADSVKGRFTISRDNAKNTVYFQMNSLKPEDTAVYYCAAKIPRPYAMDYWGQGTQVTVSS | low polyreactivity |
| QVQLVESGGGLVQAGGSLRLSCAASGSTFVLYAMGWYRQAPGKERELVADITWSGGSTYYADSVKGRFTISRDNAMNTVYLLMNSLKPEDTAVYYCAARYPWVYYDFDYWGQGTQVTVSS | low polyreactivity |
| QVQLVESGGGLVQAGGSLRLSCAASGRTFRYYAMGWYRQAPGKERELVATSTGSGGSTYYADSVKGRFTISRDNSKNTVYLQMNSLKPEDTAVYYCNARKVRYPYRWYDYWGQGTQVTVSS | high polyreactivity |
| QVKLVESGGGLVQAGGSLRLSCAASGSTFHVYAMGWYRQEPGKESELVAGITSSGYSTYYADSVKGRFTISRDNAKNTVYLKMNSLKPEDTAFYYCNADIRGPYYYHRYDYWGQGTQVTVSS | low polyreactivity |
| QVQLVESGGGLVQAGGSLRLSCAASGSIFSRNAMGWYRQAPGKERELVAAISWRGGSTYYADSVKGRFTISRDNAKYTVYLQMNSLKPEDTAVYYCGALSYPGKAGMGYWGQGTQVTVSS | high polyreactivity |
| QVQLVESGGGLVQAGGSLRLSCAASGSILYYYVMGWYRQAPGKERELVAAITSGGSTYYADSVKGRFTISRDNAKYTVYFQMIILKPEDTAVFYCAVGYVLTGVFQARFDYWGQGTQVNVSS | high polyreactivity |
| QVQLVESGGGLVQAGGSLRLSCAASGITFPYYAMGWDRQAPGKERELVAAISSSGGSTYYADSVKGRFTISRDNAKNTVYLQMNSLKPEDTAVYYCAAQRYINYDYWGQGTQVTVSS | high polyreactivity |
| QVQLVESGGGLVQAGGSLRLSCAASGRTFSRYAMGWYRQAPGKEREFVAAISASGGSTYYADSVKGRFTISRDNAKNTVYLQMNSLKPEDTAVYYCAASGYYRYYQYRYDYWGQGTQVTVSS | high polyreactivity |
| QFQLVESGGGLVQAGGSLRLSCASYGFTFEYNAMGGYRQSPGKESEFVATISWSGGSTYYADSVKGRFTFSRDKAKNTVYLQMNSLKPEDTAVYYCNAEVFFPSTYGMDYWGQGTQVTVSS | low polyreactivity |
| QVQLVESGGGLVQAGGSLRLSCAASGRTFWGYAMGWYRQAPGKERELVAAISCRGGRTYYADSVKGRFTISRDNAKNTVYLQMNSLKPEDTAVYYCNRAYLLRPDLYDYWGQGTQVTVSS | low polyreactivity |
| QVQLEESGGGLVQAGGSLRLSCAASGFIFYQYAMGSYRQAPGKVRELVAAISWNGGRTYYADSVKGRFTISRDNAKNTVYLQMNSLKPEDTAVYYCAAPVLTSDYTLDSYYWGQGTQVTVSS | high polyreactivity |

| Sequence | polyreactivity (PSR sort gate) |
| --- | --- |
| QVQLVESGGGLVQAGGSLRVSCAASGLILAYYDMGWYRQAPGKERELVASITGSGGDTYYADSVKGRFTISRDNAKNTVYLQMNSLKPEDTAVYYCAAEYRNVYWIFGVDYWGQGTQVTVSS | low polyreactivity |
| QVQLVESGGGLVQAGGSLRLSCAASGSILFKNAMGWYRQAPGKERELVAAISTSGGRTYYADSVKGRFTISRDNAKNTVSLQMNSLKPEDTAVYYCAAVYPRQVSQVWRDDYWGQGTQVTVSS | high polyreactivity |
| QVQLVESGGGLVQAGGSLRLSCAASGFTFAPNPMGWYRPAPGKEWELVAAITRSGGSTYYADSVKGRFTISRDNAKNTVYLQMYSLKPEDTAVYYCNAGRRGSGYVYWGQGTQVTVSS | high polyreactivity |
| QVQLVESGGGLVQAGGSLRLSCAASGRTFYFYTMGWYRQAPGIERELVATIRWSAGSTYSADSVKGRFTISRDNAKNTVYLQMTSLKPEDTAVYYCNADPYVYSSWQYGYWGQGTQVTVSS | high polyreactivity |
| QVQLVESGGGLVQAGGSLRLSCAASGFTFTRYAMGWYRQAPGKERELVAAIRWSGGRTYYADSVKGRFTISRDNAKNTVYLQMNSLKPEDTAVYYCYAVFYDPRREYDYWGQGTQVTVSS | high polyreactivity |
| QVQLVESGGGLVQAGGSLRLSCAASGFTLYRYAMGWYRQAPGKERELVAAISKRGATSYYADSVKGRFTISRDNAKNTVYLQMNSLKPEDTAVYYCAATISRAYKPVKGHYYLGMDYWGQGTQVTVSS | high polyreactivity |
| QVQLVESGGGLVQAGGSLRLSCAASGFIFLYNVMGWYRQAPGKERELVAAISWRGGTYYAHSVKGRFTISRDNAKNTVYLQMNSLKPEDTAVYYCAKKQRYYGRMDYWGQGTQVTVSS | high polyreactivity |
| QVQLVESGGGLVQAGGSLRLSCAASVSTFQGYSMGWYRQAPGKERELVAAITTDGDSTYYADSVKGRFTISRDNAKNTVYLQMNSLKPEDTAVYYCAADQDGRWEGSSDPGDSWGQGTQVTVSS | low polyreactivity |
| QVQHVESGGGLVQAGGSLRIRCAASGSIFDLNAMGWYRPAPGKEMELVAASSSGGGTYYADSVKGRFTISRDNAKKTVYLLMISLKPEDTALSDCNRVTRWTYNYWGQGSQVTVSS | high polyreactivity |
| QVQLVESGGGLVQAGVSLRLSYADSGPIFYKYVMGWYRQAPGKEREMDAAINRSGGTTYYADSVKGRFTISRDKAMNTVYLQMNRLKREDTAVYYCNATLPDYWRYYYYQCGDDYWGQGTQVTVSS | low polyreactivity |
| QVQLVESGGGLVQAGGSLRLSCAASGSTFTYYAMGWYRQAPGKEREFVATIRRSGGRTNYADSVKGRFTISRDNAKNTVYLQMNSLKPEDTAVYYCNARYTNVRGFDYWGQGTQVTVSS | high polyreactivity |
| QVQLVESGGGLVQAGGSLRLSCAASGFIYGANAMGWYRQAPGKERALVAAISWNGGRTYYADSVKGRFTISRDNAKKTVYLQMNSLKPEDTAVYYCNARSWYSFQPQDYWGQGTQVTVSW | high polyreactivity |
| QVQLVESGGGLVQAGRSLRLSCAPSGSTFKHNAMGWYRQAPGKERELVATITLRDGSTYYADSVKGRFTISRDNAKNTVYLQMNSLKPEDTAVYYCATYYSAINYGWSKTILYDYWGQGTQVTVSS | low polyreactivity |
| QVQLVESGGGLVQAGGSLRLSCADSGITLVYDGMGWDIQAPGKERELVAAISWTGGSTFYADSVKGLFTISLDNAKKTVYLQMNSLKPEDTAVYYCAADRGYFYSRIQVDSDYWGQGTQVTVSS | low polyreactivity |
| PLQLVESGGGLVQAGGSLRLSCAASGIIFGRYTMGWYRQAPGKERELFAAITSSGITYYADSVNGRFTISRDNAKNTVYLQLNSLKPEDTAVYYCNADYSIPGYYWPYDYWGLGTQVTVSS | low polyreactivity |
| QVQIVESGGGLVQAGGSLRLSCAASGSTFPSYAMGWYRQATGKEREWVAAITRSCGRTYYADSVKGRFTISRDNSKHTVYLQMNSLKPEDTAVYYCAADLGSNYDYWGQGTQVTVLS | low polyreactivity |
| QVQLVESGGGLVQAGGSLRLSCAASGSIFQSNAMGWYRQAPGKERELFAAISWNTGSTYADSVKGRFTISRDNAKNTVYLQMNSLKPEDTAVYYCAADRSHAYYRKNRVDYWGQGTQVTVSS | low polyreactivity |
| QVQLVESGGGLVQAGGSLRISCAASGSIFSYYAMGWYRQAPGTERELVAAITRGGTTYYADSVKGRFTISRDNAKNTVYLQMNSLKPEDTAVYYCAVYYYSGTAGYRYGYWGQGTQVTVSS | high polyreactivity |
| QEQLQESGGGQVQAGGSLLLSCAASGNIIRYYYMGWYRQAQGKVRELVAAITYGTSTNYADSVKGRFTISRDNAKNTVYLQMNSLKPEDTAVYYCAVDVNYGDPLDNWGEGTQVTVSS | high polyreactivity |
| QVQLVESGGGLVQAGGSLRLSCAASGSIFTPNSMGSYRPAPGKERELVAAISSSSDRTYYADSVKGRFTISRDNAKNTVYLQRNSLKPEDTAVYYCAAYAQKRYYWGQGTEVTVSS | high polyreactivity |
| QVQLVESGGGLVQAGGSLRLSCAASGLTFYLYAMGWYRQAPGKERELVAAISSSGSSTYYADSVKGRFTISRDNAKHTVYLQMNSLKPEDTAVYYCAAVASRGWGRYGYWGQGTQVTVSS | high polyreactivity |
